Data reported in paper PMC5489143, “One ligand, two regulators and three binding sites: How KDPG controls primary carbon metabolism in Pseudomonas” (PLoS Genetics, 2017).

Legend:
RccR (RccR-His) = biological target: T1, RccR (RccR-His) (Pseudomonas paralactis, UniProt A0A0R3AJU3); experiment: SPR (ReDCaT, Biacore T200), change of RccR binding to immobilised DNA; conditions: effector; lowers binding to aceE and rccR sites, raises binding to aceA 28 bp site; 0.5 uM RccR-His, 0-1000 uM ligand, 10 mM Hepes pH 7.4, 300 mM NaCl, 3 mM EDTA, 25 C
T1 construct: gene hexR; full gene in pET42b, E. coli BL21(DE3) pLysS; C-terminal His tag kept; nickel and heparin columns
T1 sequence (A0A0R3AJU3 1-288): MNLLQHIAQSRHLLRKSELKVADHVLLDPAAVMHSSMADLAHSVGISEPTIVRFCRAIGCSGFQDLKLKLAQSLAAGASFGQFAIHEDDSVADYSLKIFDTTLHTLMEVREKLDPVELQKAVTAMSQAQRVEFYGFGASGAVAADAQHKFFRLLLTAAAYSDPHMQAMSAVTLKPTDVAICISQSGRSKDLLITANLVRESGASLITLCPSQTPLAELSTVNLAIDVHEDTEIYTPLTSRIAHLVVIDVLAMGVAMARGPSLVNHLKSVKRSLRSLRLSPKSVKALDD

[1] = tested on: RccR-His (Pseudomonas fluorescens SBW25); experiment: DNase I footprinting; conditions: full protection concentration, SPR: 10 mM Hepes pH 7.4, 300 mM NaCl, 3 mM EDTA, 0.05% Tween20, 25 C, DNase I footprint: 10 mM Tris-HCl pH 8.0, 50 mM NaCl, 10 mM KCl, 5 mM MgCl2, 1 mM DTT …

`O=C(O)C(=O)C[C@H](O)[C@H](O)COP(=O)(O)O` [KDPG, 2-keto-3-deoxy-6-phosphogluconate] was tested, and the “%Rmax” value (RccR (RccR-His)) was “KDPG addition decreased the affinity of RccR-His for both aceE and rccR consensus sequences”.

aceA promoter DNase I probe showed a binding signal ([1]; lower affinity than aceE and rccR) of 80 nM.

For aceE promoter DNase I probe, the binding signal ([1]; two sites) was 10 nM.

For rccR promoter DNase I probe, the binding signal [1] was 20 nM.
